The values below come from article PMC11208152, “Dynamic Arabidopsis P5CS filament facilitates substrate channelling” (Nature Plants, 2024).

Data set [1] deals with the molecule itself. Nature of the data set: negative-staining EM; purified protein about 2-4 μM incubated at 25 °C with substrates (ATP, glutamate, both, or all substrates = mixed state) at the concentrations of the activity assay; step seen: oligomers (tetramers) into filaments.
Data set [2] concerns the molecule itself. Description: cryo-EM structure; mixed state: about 5 μM purified protein in reaction buffer with all substrates (25 mM Tris-HCl pH 8.0, 150 mM NaCl, 20 mM glutamate, 10 mM MgCl2, 5 mM ATP, 0.5 mM NADPH), on ice about 30 min (AtP5CS1) or 60 min (AtP5CS2); filament of tetrameric helical units, focus refinement on the GK tetramer.

B1: AtP5CS2-GK, truncated AtP5CS2 consisting of residues 1-290 (glutamate kinase domain) (domain or fragment, Arabidopsis thaliana, UniProt P54888 1-290, looked up)
chain: MTEIDRSRAFAKDVKRIVVKVGTAVVTGKGGRLALGRLGAICEQLAELNSDGFEVILVSSGAVGLGRQRLRYRQLVNSSFADLQKPQMELDGKACAGVGQSSLMAYYETMFDQLDVTVAQMLVTDSSFRDKDFRKQLSETVKAMLRMRVIPVFNENDAISTRRAPYKDSTGIFWDNDSLAALLSLELKADLLILLSDVEGLYTGPPSDSTSKLIHTFIKEKHQDEITFGEKSKLGRGGMTAKVKAAVNAAYGGVPVIITSGYAAENISKVLRGLRVGTLFHQDAHLWAPV
notes: Delta-1-pyrroline-5-carboxylate synthase 2 (P5CS2) of Arabidopsis thaliana, residues 1-290, the glutamate kinase (GK) domain; probably made as His6-SUMO fusion in E. coli and cleaved with ULP1 like the full-length AtP5CS2 (surmised); also called AtP5CS2 GK domain
For the protein B1, the binding result in data set [1] was “binds”.

B2: Arabidopsis thaliana delta-1-pyrroline-5-carboxylate synthase 1 (AtP5CS1) (enzyme, UniProt P54887 1-717, looked up)
chain: MEELDRSRAFARDVKRIVVKVGTAVVTGKGGRLALGRLGALCEQLAELNSDGFEVILVSSGAVGLGRQRLRYRQLVNSSFADLQKPQTELDGKACAGVGQSSLMAYYETMFDQLDVTAAQLLVNDSSFRDKDFRKQLNETVKSMLDLRVIPIFNENDAISTRRAPYQDSSGIFWDNDSLAALLALELKADLLILLSDVEGLYTGPPSDPNSKLIHTFVKEKHQDEITFGDKSRLGRGGMTAKVKAAVNAAYAGIPVIITSGYSAENIDKVLRGLRVGTLFHQDARLWAPITDSNARDMAVAARESSRKLQALSSEDRKKILLDIADALEANVTTIKAENELDVASAQEAGLEESMVARLVMTPGKISSLAASVRKLADMEDPIGRVLKKTEVADGLVLEKTSSPLGVLLIVFESRPDALVQIASLAIRSGNGLLLKGGKEARRSNAILHKVITDAIPETVGGKLIGLVTSREEIPDLLKLDDVIDLVIPRGSNKLVTQIKNTTKIPVLGHADGICHVYVDKACDTDMAKRIVSDAKLDYPAACNAMETLLVHKDLEQNAVLNELIFALQSNGVTLYGGPRASKILNIPEARSFNHEYCAKACTVEVVEDVYGAIDHIHRHGSAHTDCIVTEDHEVAELFLRQVDSAAVFHNASTRFSDGFRFGLGAEVGVSTGRIHARGPVGVEGLLTTRWIMRGKGQVVDGDNGIVYTHQDIPIQA
notes: Delta-1-pyrroline-5-carboxylate synthase 1 (P5CS1) of Arabidopsis thaliana; also called His6-AtP5CS1; not shown: His6, N-terminal, kept
By stoichiometry N is commonly meant a count of units in the complex or per binding partner. On to B2, for which the “stoichiometry N” value in data set [2] stood at 4.

B3: Arabidopsis thaliana delta-1-pyrroline-5-carboxylate synthase 2 (AtP5CS2), wild type (enzyme, UniProt P54888 1-726, looked up)
chain: MTEIDRSRAFAKDVKRIVVKVGTAVVTGKGGRLALGRLGAICEQLAELNSDGFEVILVSSGAVGLGRQRLRYRQLVNSSFADLQKPQMELDGKACAGVGQSSLMAYYETMFDQLDVTVAQMLVTDSSFRDKDFRKQLSETVKAMLRMRVIPVFNENDAISTRRAPYKDSTGIFWDNDSLAALLSLELKADLLILLSDVEGLYTGPPSDSTSKLIHTFIKEKHQDEITFGEKSKLGRGGMTAKVKAAVNAAYGGVPVIITSGYAAENISKVLRGLRVGTLFHQDAHLWAPVVDTTSRDMAVAARESSRKLQALSSEDRKQILHDIANALEVNEKTIKAENDLDVAAAQEAGYEESLVARLVMKPGKISSLAASVRQLAEMEDPIGRVLKKTQVADDLILEKTSSPIGVLLIVFESRPDALVQIASLAIRSGNGLLLKGGKEARRSNAILHKVITDAIPETVGGKLIGLVTSREEIPDLLKLDDVIDLVIPRGSNKLVSQIKNSTKIPVLGHADGICHVYVDKSGKLDMAKRIVSDAKLDYPAACNAMETLLVHKDLEQNGFLDDLIYVLQTKGVTLYGGPRASAKLNIPETKSFHHEYSSKACTVEIVEDVYGAIDHIHQHGSAHTDCIVTEDSEVAEIFLRQVDSAAVFHNASTRFSDGFRFGLGAEVGISTSRIHARGPVGVEGLLTTRWIMRGKGQVVDGDNGIVYTHKDLPVLQRTEAVENGI
notes: Delta-1-pyrroline-5-carboxylate synthase 2 (P5CS2) of Arabidopsis thaliana; In the filament the helical unit is a tetramer (GK tetramer core, two GPR dimers); Only the GK tetramer was modelled at high resolution; also called AtP5CS2-WT; WT AtP5CS2; source: E. coli Rosetta (DE3), purified (Ni-NTA, SUMO-tag removed with yeast ULP1, Superose 6 Increase SEC); not shown: His6, N-terminal, cleaved; …
Regarding B3, the “stoichiometry N” value in data set [2] came to 4.
